# According to the RNAGym collection of RNA variant scans (doi:10.7554/elife.80360):
# B1: HDV Ribozyme (parent)
# chain: GGCCGGCAUGGUCCCAGCCUCCUCGCUGGCGCCGGCUGGGCAACAUUCCGAGGGGACCGUCCCCUCGGUAAUGGCGAAUGGGACCCA
# Variants of: B1
# Experiment: self-cleavage, relative activity (ratio to wild type); higher = more cleavage; co-transcriptional
row,Variant,self-cleavage
1,GGCCGGCAUUGUCCCAGCCUCCUUGCUGGCGCCGGCUGGGCAACAUUCCGAGGGGACCGUCCCCUCGGUAAUGGCGAAUGGGACCCA,0.427
2,GGCCGGCAUUGUCCCAGCCUCCUAGCUGGCGCCGGCUGGGCAACAUUCCGAGGGGACCGUCCCCUCGGUAAUGGCGAAUGGGACCCA,0.328
3,GGCCGGCAUUGUCCCAGCCUCCUGGCUGGCGCCGGCUGGGCAACAUUCCGAGGGGACCGUCCCCUCGGUAAUGGCGAAUGGGACCCA,0.0886
4,GGCCGGCAUUGUCCCAGCCUCCUCGCUGGCGCGGGCUGGGCAACAUUCCGAGGGGACCGUCCCCUCGGUAAUGGCGAAUGGGACCCA,0.0511
5,GGCCGGCAUUGUCCCAGCCUCCUCGCUGGCGCCGGCUGGGCAACAUUGCGAGGGGACCGUCCCCUCGGUAAUGGCGAAUGGGACCCA,0.767
6,GGCCGGCAUUGUCCCAGCCUCCUCGCUGGCGCCGGCUGGGCAACAUUUCGAGGGGACCGUCCCCUCGGUAAUGGCGAAUGGGACCCA,0.782
7,GGCCGGCAUUGUCCCAGCCUCCUCGCUGGCGCCGGCUGGGCAACAUUCCGAGGGGACCGUCCCCUCGGUAAUGGAGAAUGGGACCCA,0.0213
8,GGCCGGCAUUGUCCCAGCCUCCUCGCUGGCGCCGGGUGGGCAACAUUCCGAGGGGACCGUCCCCUCGGUAAUGGCGAAUGGGACCCA,0.0615
9,GGCCGGCAUUGUCCCAGCCUCCUCGCUGGCGCCGGUUGGGCAACAUUCCGAGGGGACCGUCCCCUCGGUAAUGGCGAAUGGGACCCA,0.472
10,GGCCGGCAUUGUCCCAGCCUCCUCGUUGGCGCCGGCUGGGCAACAUUCCGAGGGGACCGUCCCCUCGGUAAUGGCGAAUGGGACCCA,1.13
11,GGCCGGCAUUGUCCCAGCCUCCUCGGUGGCGCCGGCUGGGCAACAUUCCGAGGGGACCGUCCCCUCGGUAAUGGCGAAUGGGACCCA,0.677
12,GGCCGGCAUUGUCCCAGCCUCCUCGCUGGCGCCGGCUGGGGAACAUUCCGAGGGGACCGUCCCCUCGGUAAUGGCGAAUGGGACCCA,0.619
13,GGCCGGCAUUGUCCCAGCCUCCUCGCUGGCGCCGGCUGGGCAACAUUCCGAGGGGACCGUCCCCUCGGUAAUGGCGAAUGGGAUCCA,0.409
14,GGCCGGCAUUGUCCCAGCCUCGUCGCUGGCGCCGGCUGGGCAACAUUCCGAGGGGACCGUCCCCUCGGUAAUGGCGAAUGGGACCCA,0.0623
15,GGCCGGCAUUGUCCCAGCCUCCUCGCUGGCGCCGGCUGGGCAACAUUCCGAGGGGAACGUCCCCUCGGUAAUGGCGAAUGGGACCCA,0.749
16,GGCCGGCAUUGUCCCAGCCUCCUCGCUGGCGCCGGCUGGGCAACAUUCCGAGGGGACCGUCCCGUCGGUAAUGGCGAAUGGGACCCA,0.669

row,Variant,self-cleavage
1,GGCCGGCAUUGUCCCAGCCUCCUCGCUGGCGCCGGCUGGGCAACAUUCCGAGGGGACCGUGCCCUCGGUAAUGGCGAAUGGGACCCA,0.635
2,GGCCGGCAUUGUCCCAGCCUCCUCGCUGGCGCCGGCUGGGCAACAUUCCGAGGGGACCGUACCCUCGGUAAUGGCGAAUGGGACCCA,0.665
3,GGCCGGCAUUGUCCCAGCCUCCUCGCUGGUGCCGGCUGGGCAACAUUCCGAGGGGACCGUCCCCUCGGUAAUGGCGAAUGGGACCCA,0.137
4,GGCCGGCAUUGUCCCAGCCUCCUCGCUGGCGCCGGCUGGGCAACAUUCCGAGGGGACCGUCACCUCGGUAAUGGCGAAUGGGACCCA,0.787
5,GGCCGGCAUUGUCCCAGCCUCCUCGCUGGCGCCGGCUGGGCAACAUUCCGAGGGGACCGUCGCCUCGGUAAUGGCGAAUGGGACCCA,0.641
6,GGCCGGCAUUGUCCCAGCCUCCUCGCUGGCGCCGGCUGGGCAACAUUCCGAGGGGACCGUCUCCUCGGUAAUGGCGAAUGGGACCCA,0.722
7,GGCCGGCAUUGUCCCAGCCUCCUCGCUGGCGCCGGCUGGGCAAGAUUCCGAGGGGACCGUCCCCUCGGUAAUGGCGAAUGGGACCCA,0.296
8,GGCCGGCAUUGUCCCAGCCUCCUCGCUGGCGCCGGCUGGGCAAUAUUCCGAGGGGACCGUCCCCUCGGUAAUGGCGAAUGGGACCCA,0.459
9,GGCCGGCAUUGUCCCAGCCUCCUCGCUGGCGCCGGCUGGGCAAAAUUCCGAGGGGACCGUCCCCUCGGUAAUGGCGAAUGGGACCCA,0.277
10,GGCCGGCAUUGUCCCAGCCUCCUCGCUGGCGCCGGCUGGGCAACAUUCCGAGGGGACCGUCCCCUCGGUAAUGGCGAAUGGGACCGA,0.445
11,GGCCGGCAUUGUCCCAGCCUCCUCGCUGGCGCCGGCUGGGCAACAUUCCGAGGGGACCGUCCCCUCGGUAAUGGCGAAUGGGACACA,1.15
12,GGCCGGCAUUGUCCCAGCCUCCUCGCUGGCGCCGGCUGGGCAACAUUCCGAGGGGACCGUCCCCUCGGUAAUGGCGAAUGGGACGCA,1.03
13,GGCCGGCAUUGUCCCAGCCUCCUCGCUGGCGCCGGCUGGGCAACAUUCCGAGGGGACCGUCCCCUUGGUAAUGGCGAAUGGGACCCA,0.728
14,GGCCGGCAUUGUCCCAGCCUCCUCGCUGGCGCCGGCUGGGCAACAUUCCGAGGGGACCGUCCCCUGGGUAAUGGCGAAUGGGACCCA,0.717
15,GGCCGGCAUUGUCCCAGCCUCCUCGCUGGCGCCGGCUGGGCAACAUUCAGAGGGGACCGUCCCCUCGGUAAUGGCGAAUGGGACCCA,0.554
16,GGCCGGCAUUGUCCCAGCCUCCUCGCUGGCGCCGGCUGGGCAACAUUCUGAGGGGACCGUCCCCUCGGUAAUGGCGAAUGGGACCCA,0.955
